Experimental findings from PMC6784373, “Development of a Label-Free Electrochemical Aptasensor for the Detection of Tau381 and its Preliminary Application in AD and Non-AD Patients’ Sera” are described below.

For this data set, the target named is tau381 (1N3R as printed) (human, UniProt P10636-4 1-381). Briefly: electrochemical aptasensor (DPV, EIS); aptamer immobilized on Au NP/thionin/carboxyl graphene GCE; linear 1.0-100 pM, LOD 0.70 pM (sensor values, not Kd); 0.1 M PBS pH 7.0, 5 uM aptamer for immobilization, 30 min tau381 incubation, DPV -0.6 to 0.2 V; EIS in 10 mM [Fe(CN)6]3-/4-; temperature not stated. The settings on record: protein: commercial.
Sequence of tau381 (1N3R as printed) (P10636 other isoform, or with tags, fused parts or gaps): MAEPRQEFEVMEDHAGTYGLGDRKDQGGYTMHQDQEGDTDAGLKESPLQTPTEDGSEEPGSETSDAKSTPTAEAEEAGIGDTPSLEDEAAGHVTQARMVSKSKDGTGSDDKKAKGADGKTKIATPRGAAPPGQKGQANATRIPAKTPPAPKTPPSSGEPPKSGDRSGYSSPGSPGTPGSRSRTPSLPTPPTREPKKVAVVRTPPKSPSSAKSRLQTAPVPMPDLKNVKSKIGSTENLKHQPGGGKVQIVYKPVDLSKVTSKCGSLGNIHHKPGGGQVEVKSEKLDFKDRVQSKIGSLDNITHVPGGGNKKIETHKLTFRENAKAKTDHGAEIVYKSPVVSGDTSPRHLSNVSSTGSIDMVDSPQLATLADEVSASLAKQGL

B1: tau381 aptamer (5'-amino) (ssDNA)
DNA: GCGGAGCGTGGCAGG
modifications: 5'-H2N
As for B1, the binding result is reported as “binds”.
